# Several values for one entry are separate records, joined by “and”; a condition that tells them apart may be missing. Equal values may be shown once.
# B1: TCN-555 (5246_L16) (antibody, V domains shown)
# VH: QVQLVQSGAEVKRPGSSVKVSCTASGGIFRKNAISWVRQAPGQGLEWMGGIIAVFNTANYAQKFQNRVKITADESGNTAYMELSSLTSDDTAVYYCASHPKYFYGSGSYPDFWGQGTLVTVSS
# VL: QSALTQPRSVSGSPGQSITISCTGGSSDIGASNSVSWYQQHPGKAPKLVIFDVTERPSGVPHRFSGSKSGNTASLTVSGLQPDDEADYFCCAYGGKYLVVFGGGTKVTVL
# B2: TCN-523 (5248_A17) (antibody, V domains shown)
# VH: QVQLVQSGAEVKKPGSSVKVSCKASGGSFSNYAFSWVRQAPGQGLEWMGGTIPLLGTTNYAQKFQGRVTISADQFTSTAYMELGSLRSEDTAVYYCTRRKMTTAFDSWGQGTLVTVSS
# VL: QPVLTQPPSASASLGASVTLTCTLSSAYSNYKVDWYQQRPGKGPRFVMRVGTGGIVGSKGDGIPDRFSVLGSGLNRYLTIKNIQEEDESDYHCGADHGSGSNFVSPYVFGGGTKLTVL
# B3: TCN-535 (5246_P19) (antibody, V domains shown)
# VH: QVQLVQSGSEVKKPGTSVKVSCTASGSVFTNYGISWVRQAPGQGLEWMGGIIPLFGAAKYAQKFQGRVTITADESTKTVYMELSRLTSKDTAIYFCAKAPRVYEYYFDQWGQGTPVTVSS
# VL: EIVLTQSPGTLSLSPGERATLSCRASQSVSSSQLAWYQQKPGQAPRLIIYGASTRATGIPDRFSGSGSGTDFTLTIGRLEPEDFAVFFCQQYSTSPPTFGQGTKVDFK
# B4: TCN-557 (5081_A04) (antibody, V domains shown)
# VH: QVQLVQSGAEVKKPGASVKVSCKASGHTFTGYYIHWVRQAPGQGLEWMGWINPDSGATSSAQNFQGRVTMTGDTSSSTAYMELSRLSFDDTAVYYCARVLFTSPFDFWGEGTLVTVSS
# VL: QAVVTQEPSLAVSPGGTVTLTCGSSTGAVTRGHYPYWFQQKPGQAPRALIYDSAGNRHSWTPARFSGSLLGGKAALTLSGAQPEDEAEYYCLLSYSGVWVFGGGTKLTVL
# B5: TCN-538 (3206_O17) (antibody, V domains shown)
# VH: QITLKESGPTLVKPTQTLTLTCVFSGFSLSITGVRVGWIRQPPGKALEWLALISWDDEKHYSPSLQSRLTITKDTSKNQVVLTMTNLDPVDTATYYCARSTDRGHVLRYFGWMLPGDAFDVWGQGTMVTVSS
# VL: DIVMTQSPDFLPVSLGERATINCKSSQRVLYSSNNKNYLAWYQLKPGQPPKLIIYWASTRESGVPDRFSGSGSGTEFTLTISSLQAEDVAVYYCQQYYSRPYTFGQGTKLEIK
# B6: TCN-531 (5091_H13) (antibody, V domains shown)
# VH: EVQLVESGGDLVQPGRSLKLSCTGSGFTFGDYGVTWVRQAPGKGLEWVGFIRTRPWGGTADTAASVKGRFTISRDDSKSLAYLQMNSLKTEDTAVYYCCRDAPPNVEVASMTNWYFDLWGRGTLVTVSS
# VL: DIQLTQSPSSLSASVGDRVTITCRASQGILNCLAWYQQKPGKVPNLLMYAASTLQSGVPSRFSGSGFGTDFTLTISSLQPEDVATYYCQTYGGVSTFGGGTKVEIR
# B7: TCN-529 (5297_H01) (antibody, V domains shown)
# VH: QITLRESGPTLVKPTQTLTLTCTFSGFSLSTNGVNVGWIRQPPGKALEWLALIYWDDDKRYSPSLKRRLTITKDTSKNQVVLTLTNMDPVDTATYYCAHRPDFYGDFEYWGPGTLVTVSS
# VL: QSALTQPASVSGSPGQSITISCTGSSSDIGGYNYVSWYQQHPGKAPKLMIYDVNNRPSGVSNRFSGSKSGNTASLTISGLQTDDEADYYCGSYTGSPHYVFGTGTKVTVL
# Target: recombinant soluble homotrimeric HA of A/Anhui/1/05 (H5N1) (Influenza A virus A/Anhui/1/2005 (H5N1))
# Test: HA microarray, BCC supernatant
# Settings: remark: other sources report otherwise
row,Binder,Trimeric HA Binding RLU
1,B1,1500 RLU
2,B2,5700 RLU
3,B3,6880 RLU
4,B4,46000 RLU

# Target: recombinant soluble homotrimeric HA of A/California/4/09 (H1N1) (Influenza A virus A/California/04/2009 (H1N1))
# Test: HA microarray, BCC supernatant
# Settings: remark: other sources report otherwise
row,Binder,Trimeric HA Binding RLU
1,B5,13800 RLU
2,B1,44900 RLU
3,B2,34700 RLU
4,B3,48600 RLU
5,B4,17600 RLU

# Target: recombinant soluble homotrimeric HA of A/Egypt/3300-NAMRU3/08 (H5N1) (Influenza A virus A/Egypt/3300-NAMRU3/2008 (H5N1))
# Test: HA microarray, BCC supernatant
# Settings: remark: other sources report otherwise
row,Binder,Trimeric HA Binding RLU
1,B5,23600 RLU
2,B1,42700 RLU
3,B2,36500 RLU
4,B3,39400 RLU

# Target: recombinant soluble homotrimeric HA of A/Hong Kong/2108/03 (H9N2) (Influenza A virus A/Hong Kong/2108/2003 (H9N2))
# Test: HA microarray, BCC supernatant
# Settings: remark: other sources report otherwise
row,Binder,Trimeric HA Binding RLU
1,B4,35300 RLU

# Target: recombinant soluble homotrimeric HA of A/Indonesia/5/05 (H5N1) (Influenza A virus A/Indonesia/5/2005 (H5N1))
# Test: HA microarray, BCC supernatant
# Settings: remark: other sources report otherwise
row,Binder,Trimeric HA Binding RLU
1,B5,26400 RLU
2,B1,34500 RLU
3,B2,45800 RLU
4,B3,45600 RLU
5,B4,45200 RLU

# Target: recombinant soluble homotrimeric HA of A/Japan/305/57 (H2N2) (Influenza A virus A/Japan/305/1957 (H2N2))
# Test: HA microarray, BCC supernatant
# Settings: remark: other sources report otherwise
row,Binder,Trimeric HA Binding RLU
1,B6,410 RLU
2,B7,435 RLU
3,B5,43000 RLU
4,B1,2130 RLU
5,B2,5110 RLU
6,B3,26100 RLU
7,B4,43400 RLU

# Target: recombinant soluble homotrimeric HA of A/Netherlands/219/03 (H7N7) (Influenza A virus A/Netherlands/219/03 (H7N7))
# Test: HA microarray, BCC supernatant
# Settings: remark: other sources report otherwise
row,Binder,Trimeric HA Binding RLU
1,B5,6530 RLU
2,B4,6780 RLU

# Target: recombinant soluble homotrimeric HA of A/Solomon Islands/3/06 (H1N1) (Influenza A virus A/Solomon Islands/3/2006 (H1N1))
# Test: HA microarray, BCC supernatant
# Settings: remark: other sources report otherwise
row,Binder,Trimeric HA Binding RLU
1,B7,179 RLU
2,B5,33200 RLU
3,B1,26400 RLU
4,B2,37900 RLU
5,B3,39400 RLU
6,B4,40700 RLU

# Target: recombinant soluble homotrimeric HA of A/Vietnam/1203/04 (H5N1) (Influenza A virus A/Vietnam/1203/2004 (H5N1))
# Test: HA microarray, BCC supernatant
# Settings: remark: other sources report otherwise
row,Binder,Trimeric HA Binding RLU
1,B1,876 RLU
2,B2,3380 RLU
3,B3,4740 RLU
4,B4,47300 RLU

# Target: recombinant soluble homotrimeric HA of A/Wisconsin/67/05 (H3N2) (Influenza A virus A/Wisconsin/67/2005 (H3N2))
# Test: HA microarray, BCC supernatant
# Settings: remark: other sources report otherwise
row,Binder,Trimeric HA Binding RLU
1,B6,7090 RLU
2,B7,51600 RLU
3,B5,6900 RLU
4,B1,9800 RLU
5,B3,34300 RLU
6,B4,10200 RLU

# Target: recombinant soluble homotrimeric HA of A/chicken/Vietnam/NCVD-016/08 (H5N1) (Influenza A virus A/chicken/Vietnam/NCVD-016/2008 (H5N1))
# Test: HA microarray, BCC supernatant
# Settings: remark: other sources report otherwise
row,Binder,Trimeric HA Binding RLU
1,B7,410 RLU
2,B5,37300 RLU
3,B1,22300 RLU
4,B2,48900 RLU
5,B3,50000 RLU
6,B4,45500 RLU

# Target: recombinant soluble homotrimeric HA of A/duck/Yangzhou/02/2005 (H8N4) (Influenza A virus A/duck/Yangzhou/02/2005 (H8N4))
# Test: HA microarray, BCC supernatant
# Settings: remark: other sources report otherwise
row,Binder,Trimeric HA Binding RLU
1,B6,3120 RLU
2,B5,6120 RLU
3,B1,18400 RLU
4,B3,36600 RLU
5,B4,50100 RLU

# Target: recombinant soluble homotrimeric HA of A/northern shoveler/California/HKWF115/2007 (H6N1) (Influenza A virus A/northern shoveler/California/HKWF115/2007 (H6N1))
# Test: HA microarray, BCC supernatant
# Settings: remark: other sources report otherwise
row,Binder,Trimeric HA Binding RLU
1,B5,17400 RLU
2,B1,49500 RLU
3,B2,46900 RLU
4,B3,48200 RLU
5,B4,24400 RLU

# Target: recombinant soluble homotrimeric HA of A/swine/Ontario/01911-2/99 (H4N6) (Influenza A virus A/Swine/Ontario/01911-2/99 (H4N6))
# Test: HA microarray, BCC supernatant
# Settings: remark: other sources report otherwise
row,Binder,Trimeric HA Binding RLU
1,B1,1950 RLU
2,B3,5950 RLU
3,B4,27000 RLU

# Target: recombinant soluble homotrimeric HA, A/Anhui/1/05 (H5N1) (influenza A virus A/Anhui/1/2005 (H5N1))
# Test: microarray, trimeric HA, transfection supernatant
# Settings: remark: other sources report otherwise
row,Binder,Trimeric HA Binding RLU
1,B4,20000 RLU

# Target: recombinant soluble homotrimeric HA, A/Hong Kong/1073/99 (H9N2) (influenza A virus A/Hong Kong/1073/99 (H9N2))
# Test: microarray, trimeric HA, transfection supernatant
# Settings: remark: other sources report otherwise
row,Binder,Trimeric HA Binding RLU
1,B2,24200 RLU and 24600 RLU
2,B3,21200 RLU

# Target: recombinant soluble homotrimeric HA, A/Hong Kong/156/97 (H5N1) (influenza A virus A/Hong Kong/156/97 (H5N1))
# Test: microarray, trimeric HA, transfection supernatant
# Settings: remark: other sources report otherwise
row,Binder,Trimeric HA Binding RLU
1,B5,5170 RLU
2,B1,36300 RLU
3,B2,28400 RLU
4,B4,27100 RLU

# Target: recombinant soluble homotrimeric HA, A/Netherlands/219/03 (H7N7) (influenza A virus A/Netherlands/219/03 (H7N7))
# Test: microarray, trimeric HA, transfection supernatant
# Settings: remark: other sources report otherwise
row,Binder,Trimeric HA Binding RLU
1,B4,53700 RLU

# Target: recombinant soluble homotrimeric HA, A/chicken/Vietnam/NCVD-016/08 (H5N1) (influenza A virus A/chicken/Vietnam/NCVD-016/2008 (H5N1))
# Test: microarray, trimeric HA, transfection supernatant
# Settings: remark: other sources report otherwise
row,Binder,Trimeric HA Binding RLU
1,B5,2950 RLU
2,B1,35200 RLU
3,B2,18900 RLU and 24000 RLU and 51300 RLU
4,B3,20900 RLU
5,B4,23300 RLU

# Target: recombinant soluble homotrimeric HA, A/duck/Yangzhou/02/2005 (H8N4) (influenza A virus A/duck/Yangzhou/02/2005 (H8N4))
# Test: microarray, trimeric HA, transfection supernatant
# Settings: remark: other sources report otherwise
row,Binder,Trimeric HA Binding RLU
1,B4,24000 RLU

# Target: recombinant soluble homotrimeric HA, A/northern shoveler/California/HKWF115/2007 (H6N1) (influenza A virus A/northern shoveler/California/HKWF115/2007 (H6N1))
# Test: microarray, trimeric HA, transfection supernatant
# Settings: remark: other sources report otherwise
row,Binder,Trimeric HA Binding RLU
1,B5,8900 RLU
2,B1,28700 RLU
3,B2,29400 RLU and 25100 RLU and 46900 RLU
4,B3,18100 RLU
5,B4,49600 RLU

# Target: recombinant homotrimeric HA, A/Japan/305/57 H2N2 (Influenza A virus A/Japan/305/57 (H2N2))
# Test: trimeric HA microarray; transfection supernatant set 3
# Settings: remark: other sources report otherwise
row,Binder,Trimeric HA Binding: RLU
1,B6,489 RLU

# Target: recombinant homotrimeric HA, A/Solomon Islands/3/06 H1N1 (Influenza A virus A/Solomon Islands/3/06 (H1N1))
# Test: as above
# Settings: remark: other sources report otherwise
row,Binder,Trimeric HA Binding: RLU
1,B7,43 RLU

# Target: recombinant homotrimeric HA, A/Vietnam/1203/04 H5N1 (Influenza A virus A/Vietnam/1203/04 (H5N1))
# Test: as above
# Settings: remark: other sources report otherwise
row,Binder,Trimeric HA Binding: RLU
1,B6,2410 RLU

# Target: recombinant homotrimeric HA, A/Wisconsin/67/05 H3N2 (Influenza A virus A/Wisconsin/67/05 (H3N2))
# Test: trimeric HA microarray; transfection supernatant set 5
# Settings: remark: other sources report otherwise
row,Binder,Trimeric HA Binding: RLU
1,B5,2070 RLU

# Target: recombinant homotrimeric HA, A/swine/Ontario/01911-2/99 H4N6 (Influenza A virus A/swine/Ontario/01911-2/99 (H4N6))
# Test: as above
# Settings: remark: other sources report otherwise
row,Binder,Trimeric HA Binding: RLU
1,B1,4520 RLU
